The labels stand for the following.
B1: Li62 variant B01 Fab (VH CDR3 SEQ ID NO:20) (Fab, V domains shown)
VH: EVQLLESGGGLVQPGGSLRLSCAASGFTFSIYPMFWVRQAPGKGLEWVSWIGPSGGITKYADSVKGRFTISRDNSKNTLYLQMNSLRAEDTATYYCAREGQYDWYFELWGRGTLVTVSS
VL: DIQMTQSPSFLSASVGDSVAITCRASQDISRYLAWYQQRPGKAPKLLIYDASNLQTGVPSRFSGSGSGTDFTFTITSLQPEDFGTYYCQQYDTLHPSFGPGTTVDIK
B2: Li62 variant F02 Fab (VH CDR3 SEQ ID NO:32) (Fab, V domains shown)
VH: B1 VH with Q101L, Y102I, Y105F, E107D, L108Q
VL: B1 VL
B3: Li62 variant D12 Fab (VH CDR3 SEQ ID NO:22) (Fab, V domains shown)
VH: B1 VH with Q101H, E107D
VL: B1 VL
B4: Li62 variant H08 Fab (VH CDR3 SEQ ID NO:28) (Fab, V domains shown)
VH: B1 VH with Q101H, D103N, W104G, E107D
VL: B1 VL
B5: Li62 variant B12 Fab (VH CDR3 SEQ ID NO:18) (Fab, V domains shown)
VH: B1 VH with E107D, L108V
VL: B1 VL
B6: Li62 variant F01 Fab (VH CDR3 SEQ ID NO:23) (Fab, V domains shown)
VH: B1 VH with Q101R, E107D, L108P
VL: B1 VL
B7: Li62 variant D09 Fab (VH CDR3 SEQ ID NO:21) (Fab, V domains shown)
VH: B1 VH with G100A, Q101D, Y102I, Y105F, E107D
VL: B1 VL
B8: Li62 variant F06 Fab (VH CDR3 SEQ ID NO:25) (Fab, V domains shown)
VH: B1 VH with Q101R, E107D
VL: B1 VL
B9: Li62 variant D05 Fab (VH CDR3 SEQ ID NO:31) (Fab, V domains shown)
VH: B1 VH with Q101Y
VL: B1 VL
B10: Li113 Fab (Li62 variant C02, VH CDR3 SEQ ID NO:30) (Fab, V domains shown)
VH: B1 VH with Q101T, F106L, E107D
VL: B1 VL
B11: Li62 variant C10 Fab (VH CDR3 SEQ ID NO:29) (Fab, V domains shown)
VH: B1 VH with Q101Y, E107D
VL: B1 VL
B12: Li62 variant C10 Fab (VH CDR3 SEQ ID NO:33) (Fab, V domains shown)
VH: B1 VH with Y102F, E107D
VL: B1 VL
B13: Li62 variant B06 Fab (VH CDR3 SEQ ID NO:17) (Fab, V domains shown)
VH: B1 VH with Q101Y, E107D, L108Q
VL: B1 VL
B14: Li62 variant H08 Fab (VH CDR3 SEQ ID NO:34) (Fab, V domains shown)
VH: B1 VH with Q101T, E107D
VL: B1 VL
B15: Li62 variant F02 Fab (VH CDR3 SEQ ID NO:24) (Fab, V domains shown)
VH: B1 VH with Q101D, E107G
VL: B1 VL
B16: Li62 variant F06 Fab (VH CDR3 SEQ ID NO:19) (Fab, V domains shown)
VH: B1 VH with Q101D, E107D
VL: B1 VL
B17: Li62 variant G08 Fab (VH CDR3 SEQ ID NO:27) (Fab, V domains shown)
VH: B1 VH with E107D, L108V
VL: B1 VL
B18: Li62 variant F10 Fab (VH CDR3 SEQ ID NO:26) (Fab, V domains shown)
VH: B1 VH with G100S, Q101H, Y102I, W104R, E107D
VL: B1 VL
B19: N-terminally PEGylated Li113 (Fab, V domains shown)
VH: B1 VH with Q101T, F106L, E107D
VL: B1 VL
modifications: N-terminal 20 kDa methoxy-polyethyleneglycol propionaldehyde; chain carrying it not stated
B20: Li62 Fab (Fab, V domains shown)
VH: B1 VH with Q101H, Y102N, E107D
VL: B1 VL

Substitutions are numbered along the chain they refer to.

The first test addresses LINGO-1 (human) (UniProt Q96FE5). Nature of the test: affinity vs parent Li62 Fab; method not stated.
Regarding B1, the Fold-Improvement was determined as 8 fold. As to B2, the Fold-Improvement is 16 fold. Take B3: the Fold-Improvement was determined as 8 fold. The same measure, in the same setting: the same measure for B4: 6 fold; for B5: 8 fold; for B6: 9 fold. For B7, the Fold-Improvement is 15 fold. The same measure, in the same setting: then B8, with 8 fold; and B9, with 10 fold. Same read-out and setting: the same measure for B10: 8 fold; for B11: 11 fold; for B12: 9 fold. With B13, the Fold-Improvement was found to be 8 fold. The same measure, in the same setting: the same measure for B14: 9 fold; for B15: 8 fold; for B16: 12 fold. Same read-out and setting: then B17, with 10 fold; and B18, with 5 fold.

The target is the same in the next test. Nature of the test: ELISA. (In general: In an ELISA, binding on a coated surface is turned into a signal by an enzyme label.)
Consider B1, for which the ELISA Signal turned out to be 3. Still for that read-out and setting: then B2, with 3.

In turn, B3 displayed an ELISA Signal of 3.

As for B4, the ELISA Signal is 0.5. As to B5, the ELISA Signal amounted to 3. Still for that read-out and setting: the same measure for B6: 3; for B7: 3; for B8: 3. B9 gave an ELISA Signal of 3. As for B10, the ELISA Signal was determined as 3. Same read-out and setting: the same measure for B11: 3; for B12: 3. On the same count and under the same terms, then B13, with 3; and B14, with 3.

B15 had an ELISA Signal of 3.

Take B16: the ELISA Signal turned out to be 3. The same measure, in the same setting: the same measure for B17: 3; for B18: 3.

Another test has the same target. Nature of the test: FACS binding to LINGO-1; the value is listed under the plot without a name and agrees with the half-maximal point of the curve (x axis: Ab (ng/ml) log). In general terms: Flow cytometry measures light scatter and fluorescence of single cells or particles in a stream.
Take B19: the EC50 – broadly, the concentration that produces a half-maximal response – turned out to be 0.182 µg/mL.

Another test shares this target. Nature of the test: LINGO-1 ELISA.
In turn, B10 showed an EC50 of 0.09 nM. Same read-out and setting: the same measure for B20: 0.26 nM.

The record behind these values is patent US20130323786A1.
